Measured values as given in patent US9322000B2, “Methanol dehydrogenase enzymes from Bacillus” (Sinvent AS, priority 2012, dated 2016).

Legend:
13C-methanol = 13C-methanol labeling of genetically engineered C. glutamicum; assay type: cell-based; conditions: C. glutamicum delta ald expressing Mdh2, Hps and Phi; 40 mM 13C-methanol; 30 and 90 minutes
Experimental: For the labeling experiments we used the C. glutamicum delta ald strain that expresses Mdh2-MGA3 (pVWEx1-Mdh2), Hps and Phi (pEKEX3−Hps+Phi). As a negative control the C. glutamicum delta ald strain with the empty pEKEX3 plasmid was used. All C. glutamicum strains were grown on M9 medium containing (per liter) 3.48 g Na2HPO4.12 H2O, 0.60 g of KH2PO4, 0.51 g of NaCl, 2.04 g of NH4Cl, 0.10 g of MgSO4, 4.38 mg of CaCl2, 15 mg of Na2EDTA.2H2O, 4.5 mg of ZnSO4.7 H2O, 0.3 mg of CoCl2.6 H2O, 1 mg of MnCl2.4H2O, 1 mg of H3BO3, 0.4 mg of Na2MoO4.2H2O, 3 mg of FeSO4.7H2O and 0.3 mg of CuSO4.5H2O. For all the cultivation (M9 or LB), 1 mM of IPTG was used as inducer and 100 μg/ml of spectinomycin and 25 μg/ml of kanamycin were added in the medium as resistant markers. All the cultivations were performed at 30° C. Cell strains were plated from a glycerol stock on a LB agar plate (10 g/l of tryptone, 5 g/l of yeast extract, 10 g/l of NaCl, and 16 g/l agar) and grown afterwards on a LB liquid medium for 6 hours. The liquid pre-cultures containing M9 medium plus 3 g/l ribose were inoculated from the LB cultures at a final OD600 of 0.6 for 12 hours. […] The labeling patterns of intracellular metabolites were measured using a Dionex ICS 2000 system (Dionex, Sunnyvale, USA) coupled to a triple quadrupole QTrap 4000 mass spectrometer (Applied Biosystems, Foster City, USA).

[1] = Substrate specificity of purified MDH proteins on alternative alcohols; assay type: biochemical; conditions: all alternative alcohol substrates
Experimental: FIG. 3. Catalytic activities of purified Mdh (black), Mdh2 (dark grey) and Mdh3 (light grey) on various alcohols (200 mM) tested in vitro. (A) Substrate specificity was analysed for MDHs from B. methanolicus MGA3 in vitro. Alcohol substrates were used at concentrations of 500 mM except for pentanol (300 mM) and hexanol (50 mM). The data were calculated from the mean value from two experiments which were done in triplicate. (B) Substrate specificity for MDHs from B. methanolicus PB1 was analysed in vitro. Alcohol substrates were used at concentrations of 500 mM except for pentanol (300 mM) and hexanol (50 mM). The data were calculated from the mean value from two experiments which were done in triplicate.
Alcohol dehydrogenase activities were measured spectrophotometrically essentially as described previously (Hektor, Kloosterman et al. (2002) Chem 277(49): 46966-46973) and the reaction mixture contained: 100 mM Glycine-KOH pH 9.5 (unless otherwise stated), 5 mM MgSO4, 0.5 mM NAD^+ and 500 mM alcohol (methanol, ethanol, propanol, 1,3-propanediol, or butanol). NAD^+ was substituted with equal concentrations of NADP^+, FMN^+, and FAD^+, when indicated. […] The reactions were started by addition of 5-40 μg of the purified MDH proteins, and the production of NADH was monitored at 340 nm for 4 minutes. […]

[2] = Alcohol dehydrogenase assay of purified MDH proteins with ethanol as substrate; assay type: biochemical
Experimental: Alcohol dehydrogenase activities were measured spectrophotometrically essentially as described previously (Hektor, Kloosterman et al. (2002) Chem 277(49): 46966-46973) and the reaction mixture contained: 100 mM Glycine-KOH pH 9.5 (unless otherwise stated), 5 mM MgSO4, 0.5 mM NAD^+ and 500 mM alcohol (methanol, ethanol, propanol, 1,3-propanediol, or butanol). NAD^+ was substituted with equal concentrations of NADP^+, FMN^+, and FAD^+, when indicated. The reaction mixture for measurements of formaldehyde reductase activity contained: 50 mM Potassium-phosphate buffer pH=6.7, 0.15 mM NADH, 1 mM DTT and 11.6 mM (0.1-116 mM) formaldehyde. The assay components were mixed in the cuvette and pre-warmed to 45° C., unless otherwise stated. The reactions were started by addition of 5-40 μg of the purified MDH proteins, and the production of NADH was monitored at 340 nm for 4 minutes. One unit of MDH activity was defined as the amount of enzyme needed to produce 1 μmol NADH per minute under the conditions described above. Purified Act (0.1-40 μg) or NudF (20 μg) proteins were added to the reaction mixtures as indicated in the text.
In order to establish reliable assay conditions for comparative biochemical characterizations, the six MDH proteins were analysed for pH and temperature optima. […]

B1: Mdh2-MGA3: NAD-dependent methanol dehydrogenase encoded by chromosomal gene mdh2 of B. methanolicus MGA3, SEQ ID NO. 2 (protein)
chain: MTNTQSAFFMPSVNLFGAGSVNEVGTRLADLGVKKALLVTDAGLHGLGLSEKISSIIRAAGVEVSIFPKAEPNPTDKNVAEGLEAYNAENCDSIVTLGGGSSHDAGKAIALVAANGGKIHDYEGVDVSKEPMVPLIAINTTAGTGSELTKFTIITDTERKVKMAIVDKHVTPTLSINDPELMVGMPPSLTAATGLDALTHAIEAYVSTGATPITDALAIQAIKIISKYLPRAVANGKDIEAREQMAFAQSLAGMAFNNAGLGYVHAIAHQLGGFYNFPHGVCNAVLLPYVCRFNLISKVERYAEIAAFLGENVDGLSTYDAAEKAIKAIERMAKDLNIPKGFKELGAKEEDIETLAKNAMKDACALTNPRKPKLEEVIQIIKNAM
modifications: Bacillus methanolicus MGA3
13C label incorporation into metabolites (mass isotopomer fraction M1) (13C-methanol): Significant label incorporation into metabolites was observed

B2: Mdh3-MGA3: NAD-dependent methanol dehydrogenase encoded by chromosomal gene mdh3 of B. methanolicus MGA3, SEQ ID NO. 4 (protein)
chain: MKNTQSAFYMPSVNLFGAGSVNEVGTRLAGLGVKKALLVTDAGLHSLGLSEKIAGIIREAGVEVAIFPKAEPNPTDKNVAEGLEAYNAENCDSIVTLGGGSSHDAGKAIALVAANGGTIHDYEGVDVSKKPMVPLIAINTTAGTGSELTKFTIITDTERKVKMAIVDKHVTPTLSINDPELMVGMPPSLTAATGLDALTHAIEAYVSTGATPITDALAIQAIKIISKYLPRAVANGKDIEAREQMAFAQSLAGMAFNNAGLGYVHAIAHQLGGFYNFPHGVCNAILLPHVCRFNLISKVERYAEIAAFLGENVDGLSTYEAAEKAIKAIERMARDLNIPKGFKELGAKEEDIETLAKNAMNDACALTNPRKPKLEEVIQIIKNAM
modifications: Bacillus methanolicus MGA3
catalytic activity on alternative alcohols compared with the remaining MDHs [1]: significantly higher catalytic activity than the remaining enzymes

B3: Mdh-MGA3: previously reported plasmid pBM19-encoded NAD-dependent methanol dehydrogenase of B. methanolicus MGA3, SEQ ID NO. 8 (protein)
chain: MTTNFFIPPASVIGRGAVKEVGTRLKQIGAKKALIVTDAFLHSTGLSEEVAKNIREAGVDVAIFPKAQPDPADTQVHEGVDVFKQENCDSLVSIGGGSSHDTAKAIGLVAANGGRINDYQGVNSVEKPVVPVVAITTTAGTGSETTSLAVITDSARKVKMPVIDEKITPTVAIVDPELMVKKPAGLTIATGMDALSHAIEAYVAKGATPVTDAFAIQAMKLINEYLPKAVANGEDIEAREKMAYAQYMAGVAFNNGGLGLVHSISHQVGGVYKLQHGICNSVNMPHVCAFNLIAKTERFAHIAELLGENVAGLSTAAAAERAIVALERINKSFGIPSGYAEMGVKEEDIELLAKNAYEDVCTQSNPRVPTVQDIAQIIKNAM
modifications: Bacillus methanolicus MGA3
stimulation of Mdh activity with NudF ([2]; B. subtilis NudF added): about 8 fold | increase of catalytic activity in the presence of Act ([2]; MDH and Act 1:1): about 8 fold
